# Data published in the nanobody polyreactivity screen of Harvey et al. (2022).
# Test: yeast display, Sf9 membrane polyspecificity reagent, FACS + sequencing; frameworks hold sequencing errors
# Outline: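 Nanobodies from a synthetic yeast display library (Saccharomyces cerevisiae BJ5465), induced 36–48 hours with galactose, were stained 1 hour at 4 °C with 10% biotinylated, detergent-solubilized Sf9 membrane reagent, enriched on streptavidin microbeads, then FACS-sorted. Anti-HA (expression) and streptavidin (reagent binding) fluorescence set low and high (top ~1%) gates. Polyreactivity labels come from the gate of origin. Genes were colony-PCR amplified, MiSeq 2 × 250 sequenced and filtered by CDR length.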
row,Sequence,polyreactivity (PSR sort gate)
1,QVQLEESGGGLVQAGGSLRLSCAASGSILPDYVMGWYRQAPGKERELVAAISWSDGSTYYADSVKGRFTISRDNAKNTVYLQRNSLKPEDTAVYYCAAEVWDYYYGCYADDYWGQGTQVTVSS,low polyreactivity
2,QVQLVESGGGLVQAGGSLRLSCAASGSIFNTYVMGWYRQAPGKERELVAAITSSGGRTYYADSVKGRFTISRDNAKNTVYLQMNSLKPEDTAVYYCNTAQRWVGRNDYWGQGTQVTVSS,high polyreactivity
3,QVQLVESGGGLVQAGGSLRLSCAASGRIFRYYAMGWYRQAPGKERELVAAISSGVGNTYYADSVKWRFTISRDNAKNTVYLQKNSLKPEDTAVYYCNAKWRKFGTVRYDYWGQGTQVTVSS,high polyreactivity
4,QVQLVESGGGLVQAGGSLRLSCAASGSTFAGNGMGWYRQAPGKERELVAGIDVTGGSTYYADSVKGRFTISRDNAKNTVYLQMNSLKPEDTAVYYCNARYVYHSSFAGFDYWGQGTQVTVSS,low polyreactivity
5,QVQLVESGGGLVQAGGSLRLSCAASGSTFKYNAMGWYRQAPGKERELVARISWSGGSTYYADSVKGRFTISRDNAKNSVYLQMNSLKPEDTAVYYCAARSWWRGYSFYYWGQGTQVTVSS,high polyreactivity
6,QVQLVESGGGLVQAGGSLRLSCAASGSIFGYNAMGWSRPAPGKERELVAAITSSGGSTYYADSVKGRFTISRDNAKNTVYLQMNSLKPEDTAVYYCNARDWYIVWYDYWGQGTQVTVSS,low polyreactivity
7,QVQLVESGGGLVQAGGSLRLSCAASGSTFSTYAMGWYRQAPGKERELVAAISRTGGSTYYADSVKGRFTISRDNAKNTVYLQMNSLKPEDTAVYYCAADEDWEYWAPWYDYWGQGTQVTVSS,low polyreactivity
8,QVQLVESGGGLVQAGGSLRLSCAASGSIFNWYAMGWSRQAPGKERELVAAISEDGGSTYYADSVKGRFTISRDNAKNTVYLQMNTLKPEDTAVYYCATPVASVTGYDYWGQGTQVTVSS,low polyreactivity
9,QVQLVESGGGLVQAGGSLRLSCAASGRIFGIYAMGWFRLAPWKERELVARITGGGSTNYADSLKGRFTISRDNAKNTVYFQMTSLKPEDTAVYYCNTKKLPYAEGYWGQGTQVTVSS,low polyreactivity
10,QDQHVESGGGLVQAGGSLRLSCAASGRTFYQYAMGWYRQAPGKERELVAVINGGGSTNYADSVKGRFTISRDNAKNTVYLQMNSLKPEDTAVYYCNAGSVSDRQMDYWGQGTQVTVSS,low polyreactivity
11,QVQLVESGGGLVQAGGSLRLSCAASGSTFDSYAMGWYRQAPGKERELVAAITTTGGSTFYADSVKGRFTISRDNAKNTVYLQMNSLKPEDTAVYFCAADDGWQEFEYWGQGTQVTVSS,low polyreactivity
12,QVQLVESGGGLVQAGGSLRLSCAASGRTFRPNAMRWYRQAPGKERELVASITRRGGTTYYADSVKGRFTISRDNAKNTVYLQMNSLKPEDTAVYYCNAPPGYSSTRNGYWGQGTQVTVSS,high polyreactivity
13,QVQLVESGGGLVQAGGSLRLICAASGIIFPVYDMGWYRQAPGKERELVASITDSGGSTSYADSVKGRFTISRDNAKNTVYLQLNSLKPEDTAVYYCAVTDSDTNYYGYLSYDYWGQGTQVNVSS,low polyreactivity
14,QVQLVESGGGLVQAGGSLRLSGAASGRIFGSYARGWYRQAPGKEREFVAGIRSVGSTNYADSVKGRFTISRDNAKNTVYLQMNSLKPEDTAVSYCASRLWHVSYAGQGGDYWGKGTQVTVSS,low polyreactivity
15,QVQLVESGGGLVQAGGSLRLSCAASGVYAMGWYRQAPGKERELVAAISRRGGSTYYADSVKGRFTISRDNAKNTVYLQMNSLKPEDTAVYYCAAKRAGAEYDYWGQGTQVTVSS,high polyreactivity
16,QVQLVESGGGLVQAGGRLRLSCAASGRIYRRNTMGWYRQAPGKERELVAAITSSGGSTYADSVKGRFTISRDNAKNTVYLQMNSLKPEDTAVYYCATYVAYHRGYRTYDHWGQGTQVTVSS,low polyreactivity
17,QVQLVESGGGLVQAGGSLRLSCAASGSIFYGNAMGWYRPAPGKERELVARISWSGSNTRYADSVKGRFTISRDNAKNTVYLQMNSLKPEDTAVYYCNARGFPGKFGYWGQGTQVTVSS,high polyreactivity
18,QVQLVESGGGLVQAGGSLRLSCAASGGIFPAYAMGWYRQAPGKERELVASISSSGGSTYYADSVKGRFTISRDNAKNTVYLQMNSLKPEDTAVYYCNVAQYLRARRPVDYWGQGTQVTVSS,high polyreactivity
19,QVQLEDSGGGLVQAGGSLRLSCAASGIIFYSYAMGWYRQAPVKERELVATISFSGDNTYYADSVKGRFTISRDNAKNTVYLQMNSLKPEDTAVYYCAAASTYGGYYYSVSFEYWGQGTQVTVSS,low polyreactivity
20,QVQLVESGGGLVQAGGSLRLICAASGITFYIYAMGWYRQAPGKERELVATISWSDGRTYYADSVKGRFTISRDNAKNTVYLQMNSLKPEDTAVYYCAADWWYYQFDYEYWGQGTQVTVSS,low polyreactivity
21,QVQLVESGVGLVQAGGSLRVSCAASGRTFRYYAMGWYREAPGKERELVAAISSGTRTNYADSVTGRFTISRDNAKNTVYLQMNSLKPEDTAVYYCNAVTRRSAQGGHDYWGQGTQVTVSS,high polyreactivity
22,QVQLVVSGGGLVQAGGILRLICAASGIIFSFYTMGGYRQAPGKERELVAAISTGGGSTYYADSVKGRFTISRDNAKNTVYLQMNSLIPEDTAVSYCAASQSWYWGGAHDNGEFGYCGQGTQVTVSS,low polyreactivity
23,QVQLVESGGGLVKARGSLLLSCAASGFTFPYNAMGWYRQAPGKDRELVAAISWSGGSTYYADSVKGRFTLSRDNAKNTVYLQMNSLKPEDTAVYYCAASYWWIPMEYWGQVTQVTVSS,high polyreactivity
24,QVQLVESGGGLVQAGGSLRLSCAASGIFSYYAMGWYRPAPGKERELVAAISSSGGSTYYADSVKGRFTISRDNAMNTVYLQMNSLKPEDTAVYYCNVRNYYNDYYYWGQGTQVTVSS,high polyreactivity
25,QVQLVESGGGLVQVGGSLRLSCAASGRTFYRYAMGWYRQAPGKERELVATINWTSGSTYYADSVKGRFTISRDKAKNTVYLQMNSLKPEDTAVYYCATVPHGKDTFGYWGQGTQVTVSS,high polyreactivity
26,QVQLVESGGGLVQAGGSLRLSCAASGSTFVPYAMGWYRQAPGKEREFVAGITWSVGSTYYADSVKGRFTISRDNAKNTVYLQMNSLKPEDTAVYYCNAEIYAYFLWWYGYWGQGTQVTVSS,low polyreactivity
27,QVQLVESGGGLVQAGGSLRLSCAAYGNIFHRNAMGWYRKAPGKESEVVAAISWSGGSTYYADSVKGRFTISRDNAKNTVYLQMNSLKPEDTAVYYCNAYYYYRFKQSHPGLRSYYWGQGTQVTVSS,high polyreactivity
28,QVQLVESGGGLVQAGGSLRLSCAASGRIFNYYAMGWYRQAPGKERELVAVISRTGVRTHYADSVKGRFTISRDIAKNTVYLQMNRLKPEDTAVDYCNADSYVFRYDYWGQGSQVTVSS,high polyreactivity
29,QVQLVESGGGLVQAGGSLRLSCAASGSILFTNAMGWYRQAPGKERELVAAISSGGSTYYADSVKGRFTISRDNAKNTVYLQMNSLKPEDSAVYYCAADHLNVGREYVEYDYWGQGTQVTVSS,low polyreactivity
30,QVQLVESGGGLVQAGGSLRLSCAASGRTFYWNAMGWYRQAPGKERELVASINGGGSTYYADSVKGRFTISRDNAKNTVYLQMNSLKPEDTAVYYCNVRYYFPRYQQRYQLNEYYYWGQGTQVTVSS,low polyreactivity
